Experimental findings from paper PMC5143173 are described below.

In one assay the target is AIF H454A (human) (UniProt O95831). Kind of assay: SAXS.
The target in another assay is AIF S480A (human) (UniProt O95831). Kind of assay: SAXS.

As to “AIF H454A (from UniProt O95831 78-613) (domain or fragment)”, in the assay with AIF H454A (human), the stoichiometry N was 2.

“AIF S480A (from UniProt O95831 78-613) (domain or fragment)” gave a stoichiometry N with AIF S480A (human) of 2.
